Source: the RNAGym collection of RNA variant scans (doi:10.7554/elife.90254)

B1: LINE1-mini (parent)
chain: GGCAGAGCUCAACACAGCGUGGCAAAGUGGCUGUGGCUAGACUGCC

Variants of: B1
Assay: self-cleavage, relative activity (ratio to wild type); higher = more cleavage; in vitro, sequencing; the parent is a self-cleaving ribozyme

Variant	self-cleavage
GGCAGAGCUCAACACAGCGUGGCAAAGUGGCUAUGGCUAGGCUGCC	0.11
GGCAGAGCUCAACACAGCGUGGCAAAGUGGCUAUGGCUAGUCUGCC	0.11
GGCAGAGCUCAACACAGCGUGGCAAAGUGGCUAUGGCUAGCCUGCC	0.07
GGCAGAGCUCAACACAGCGUGGCAAAGUGGCUCUGGCUAGAGUGCC	0.05
GGCAGAGCUCAACACAGCGUGGCAAAGUGGCUCUGGCUAGAAUGCC	0.06
GGCAGAGCUCAACACAGCGUGGCAAAGUGGCUCUGGCUAGAUUGCC	0.06
GGCAGAGCUCAACACAGCGUGGCAAAGUGGCUAUGGCUAGAGUGCC	0.06
GGCAGAGCUCAACACAGCGUGGCAAAGUGGCUAUGGCUAGAAUGCC	0.08
GGCAGAGCUCAACACAGCGUGGCAAAGUGGCUAUGGCUAGAUUGCC	0.14
GGCAGAGCUCAACACAGCGUGGCAAAGUGGCUAUGGCAAGACUGCC	0.13
GGCAGAGCUCAACACAGCGUGGCAAAGUGGCUAUGGCCAGACUGCC	0.17
GGCAGAGCUCAACACAGCGUGGCAAAGUGGCUAUGGCGAGACUGCC	0.03
GGCAGAGCUCAACACAGCGUGGCAAAGUGGCUUUGGCUAGACUGCC	0.11
GGCAGAGCUCAACACAGCGUGGCAAAGUGGCUCUGGCUAGACUGCC	0.07
GGCAGAGCUCAACACAGCGUGGCAAAGUGGCUAUGGCUAGACUGCC	0.11
GGCAGAGCUCAACACAGCGUGGCAAAGUGGCGGUGGCUACACUGCC	0.07
GGCAGAGCUCAACACAGCGUGGCAAAGUGGCGGUGGCUAUACUGCC	0.11
GGCAGAGCUCAACACAGCGUGGCAAAGUGGCGGUGGCUAAACUGCC	0.05
GGCAGAGCUCAACACAGCGUGGCAAAGUGGCUCUGGGUAGACUGCC	0.04
GGCAGAGCUCAACACAGCGUGGCAAAGUGGCUCUGGAUAGACUGCC	0.03
GGCAGAGCUCAACACAGCGUGGCAAAGUGGCUCUGGUUAGACUGCC	0.05
GGCAGAGCUCAACACAGCGUGGCAAAGUGGCGUUGGCUAGACUGCC	0.07
GGCAGAGCUCAACACAGCGUGGCAAAGUGGCGCUGGCUAGACUGCC	0.09

Variant	self-cleavage
GGCAGAGCUCAACACAGCGUGGCAAAGUGGCGAUGGCUAGACUGCC	0.08
GGCAGAGCUCAACACAGCGUGGCAAAGUGGCGGUGUCUAGACUGCC	0.1
GGCAGAGCUCAACACAGCGUGGCAAAGUGGCGGUGACUAGACUGCC	0.09
GGCAGAGCUCAACACAGCGUGGCAAAGUGGCGGUGCCUAGACUGCC	0.05
GGCAGAGCUCAACACAGCGUGGCAAAGUGGCUCGGGCUAGACUGCC	0.07
GGCAGAGCUCAACACAGCGUGGCAAAGUGGCUCCGGCUAGACUGCC	0.03
GGCAGAGCUCAACACAGCGUGGCAAAGUGGCUCAGGCUAGACUGCC	0.09
GGCAGAGCUCAACACAGCGUGGCAAAGUGGCUAUUGCUAGACUGCC	0.1
GGCAGAGCUCAACACAGCGUGGCAAAGUGGCUAUCGCUAGACUGCC	0.05
GGCAGAGCUCAACACAGCGUGGCAAAGUGGCUAUAGCUAGACUGCC	0.07
GGCAGAGCUCAACACAGCGUGGCAAAGUGGCUAAGGCUAGACUGCC	0.09
GGCAGAGCUCAACACAGCGUGGCAAAGUGGCUACGGCUAGACUGCC	0.09
GGCAGAGCUCAACACAGCGUGGCAAAGUGGCUAGGGCUAGACUGCC	0.04
GGCAGAGCUCAACACAGCGUGGCAAAGUGGCUAUGGCUAGACUCCC	0.07
GGCAGAGCUCAACACAGCGUGGCAAAGUGGCUAUGGCUAGACUUCC	0.03
GGCAGAGCUCAACACAGCGUGGCAAAGUGGCUAUGGCUAGACUACC	0.1
GGCAGAGCUCAACACAGCGUGGCAAAGUGGCUCUGACUAGACUGCC	0.03
GGCAGAGCUCAACACAGCGUGGCAAAGUGGCUCUGCCUAGACUGCC	0.04
GGCAGAGCUCAACACAGCGUGGCAAAGUGGCUCUGUCUAGACUGCC	0.06
GGCAGAGCUCAACACAGCGUGGCAAAGUGGCGGUGGCUAGACUGGC	0.11
GGCAGAGCUCAACACAGCGUGGCAAAGUGGCGGUGGCUAGACUGUC	0.12
GGCAGAGCUCAACACAGCGUGGCAAAGUGGCGGUGGCUAGACUGAC	0.1
GGCAGAGCUCAACACAGCGUGGCAAAGUGGCUCUGGCUAGACUGCU	0.05

Variant	self-cleavage
GGCAGAGCUCAACACAGCGUGGCAAAGUGGCUCUGGCUAGACUGCA	0.03
GGCAGAGCUCAACACAGCGUGGCAAAGUGGCUCUGGCUAGACUGCG	0.05
GGCAGAGCUCAACACAGCGUGGCAAAGUGGCGGUGGCUAGACUUCC	0.05
GGCAGAGCUCAACACAGCGUGGCAAAGUGGCGGUGGCUAGACUCCC	0.06
GGCAGAGCUCAACACAGCGUGGCAAAGUGGCGGUGGCUAGACUACC	0.08
GGCAGAGCUCAACACAGCGUGGCAAAGUGGCUCUGGCUUGACUGCC	0.05
GGCAGAGCUCAACACAGCGUGGCAAAGUGGCUCUGGCUCGACUGCC	0.09
GGCAGAGCUCAACACAGCGUGGCAAAGUGGCUCUGGCUGGACUGCC	0.03
GGCAGAGCUCAACACAGCGUGGCAAAGUGGCGGGGGCUAGACUGCC	0.03
GGCAGAGCUCAACACAGCGUGGCAAAGUGGCGGCGGCUAGACUGCC	0.06
GGCAGAGCUCAACACAGCGUGGCAAAGUGGCGGAGGCUAGACUGCC	0.04
GGCAGAGCUCAACACAGCGUGGCAAAGUGGCGGUGGCUAGAUUGCC	0.11
GGCAGAGCUCAACACAGCGUGGCAAAGUGGCUCUGGCUAGACUCCC	0.04
GGCAGAGCUCAACACAGCGUGGCAAAGUGGCUCUGGCUAGACUACC	0.03
GGCAGAGCUCAACACAGCGUGGCAAAGUGGCUCUGGCUAGACUUCC	0.04
GGCAGAGCUCAACACAGCGUGGCAAAGUGGCUCUGGCAAGACUGCC	0.04
GGCAGAGCUCAACACAGCGUGGCAAAGUGGCUCUGGCCAGACUGCC	0.04
GGCAGAGCUCAACACAGCGUGGCAAAGUGGCUCUGGCGAGACUGCC	0.03
GGCAGAGCUCAACACAGCGUGGCAAAGUGGCUAUGGAUAGACUGCC	0.12
GGCAGAGCUCAACACAGCGUGGCAAAGUGGCUAUGGGUAGACUGCC	0.04
GGCAGAGCUCAACACAGCGUGGCAAAGUGGCUAUGGUUAGACUGCC	0.04
GGCAGAGCUCAACACAGCGUGGCAAAGUGGCGGUGGCUAGACUGCU	0.17
GGCAGAGCUCAACACAGCGUGGCAAAGUGGCGGUGGCUAGACUGCA	0.2

Variant	self-cleavage
GGCAGAGCUCAACACAGCGUGGCAAAGUGGCGGUGGCUAGACUGCG	0.1
GGCAGAGCUCAACACAGCGUGGCAAAGUGGCUAUGGCUAGACUGGC	0.07
GGCAGAGCUCAACACAGCGUGGCAAAGUGGCUAUGGCUAGACUGAC	0.1
GGCAGAGCUCAACACAGCGUGGCAAAGUGGCUAUGGCUAGACUGUC	0.1
GGCAGAGCUCAACACAGCGUGGCAAAGUGGCUCUGGCUAGACGGCC	0.01
GGCAGAGCUCAACACAGCGUGGCAAAGUGGCUCUGGCUAGACAGCC	0.12
GGCAGAGCUCAACACAGCGUGGCAAAGUGGCUCUGGCUAGACCGCC	0.03
GGCAGAGCUCAACACAGCGUGGCAAAGUGGCUCUGGCUAGACUGAC	0.04
GGCAGAGCUCAACACAGCGUGGCAAAGUGGCUCUGGCUAGACUGGC	0.06
GGCAGAGCUCAACACAGCGUGGCAAAGUGGCUCUGGCUAGACUGUC	0.05
GGCAGAGCUCAACACAGCGUGGCAAAGUGGCUCUCGCUAGACUGCC	0.04
GGCAGAGCUCAACACAGCGUGGCAAAGUGGCUCUAGCUAGACUGCC	0.04
GGCAGAGCUCAACACAGCGUGGCAAAGUGGCUCUUGCUAGACUGCC	0.04
GGCAGAGCUCAACACAGCGUGGCAAAGUGGCGGUUGCUAGACUGCC	0.06
GGCAGAGCUCAACACAGCGUGGCAAAGUGGCGGUCGCUAGACUGCC	0.1
GGCAGAGCUCAACACAGCGUGGCAAAGUGGCGGUAGCUAGACUGCC	0.09
GGCAGAGCUCAACACAGCGUGGCAAAGUGGCUAUGGCUAGACUGCU	0.12
GGCAGAGCUCAACACAGCGUGGCAAAGUGGCUAUGGCUAGACUGCG	0.08
GGCAGAGCUCAACACAGCGUGGCAAAGUGGCUAUGGCUAGACUGCA	0.1
GGCAGAGCUCAACACAGCGUGGCAAAGUGGCGGUGGCGAGACUGCC	0.03
GGCAGAGCUCAACACAGCGUGGCAAAGUGGCGGUGGCAAGACUGCC	0.07
GGCAGAGCUCAACACAGCGUGGCAAAGUGGCGGUGGCCAGACUGCC	0.12
GGCAGAGCUCAACACAGCGUGGCAAAGUGGCGGUGGCUAGACAGCC	0.04

Variant	self-cleavage
GGCAGAGCUCAACACAGCGUGGCAAAGUGGCGGUGGCUAGACCGCC	0.07
GGCAGAGCUCAACACAGCGUGGCAAAGUGGCGGUGGCUAGACGGCC	0.04
GGCAGAGCUCAACACAGCGUGGCAAAGUGGCUCUGGCUAGCCUGCC	0.05
GGCAGAGCUCAACACAGCGUGGCAAAGUGGCUCUGGCUAGUCUGCC	0.08
GGCAGAGCUCAACACAGCGUGGCAAAGUGGCUCUGGCUAGGCUGCC	0.04
GGCAGAGCUCAACACAGCGUGGCAAAGUGGCUCUGGCUAUACUGCC	0.06
GGCAGAGCUCAACACAGCGUGGCAAAGUGGCUCUGGCUAAACUGCC	0.05
GGCAGAGCUCAACACAGCGUGGCAAAGUGGCUCUGGCUACACUGCC	0.07
GGCAGAGCUCAACACAGCGUGGCAAAGUGGCUAUGUCUAGACUGCC	0.09
GGCAGAGCUCAACACAGCGUGGCAAAGUGGCUAUGCCUAGACUGCC	0.05
GGCAGAGCUCAACACAGCGUGGCAAAGUGGCUAUGACUAGACUGCC	0.12
GGCAGAGCUCAACACAGCGUGGCAAAGUGGCUAUGGCUACACUGCC	0.09
GGCAGAGCUCAACACAGCGUGGCAAAGUGGCUAUGGCUAAACUGCC	0.07
GGCAGAGCUCAACACAGCGUGGCAAAGUGGCUAUGGCUAUACUGCC	0.09
GGCAGAGCUCAACACAGCGUGGCAAAGUGGCUAUGGCUGGACUGCC	0.09
GGCAGAGCUCAACACAGCGUGGCAAAGUGGCUAUGGCUUGACUGCC	0.06
GGCAGAGCUCAACACAGCGUGGCAAAGUGGCUAUGGCUCGACUGCC	0.08
GGCAGAGCUCAACACAGCGUGGCAAAGUGGCUAUGGCUAGACCGCC	0.05
GGCAGAGCUCAACACAGCGUGGCAAAGUGGCUAUGGCUAGACGGCC	0.13
GGCAGAGCUCAACACAGCGUGGCAAAGUGGCUAUGGCUAGACAGCC	0.12
